Data taken from patent US20110289605A1, “Animal Model for Osteoarthritis and Intervertebral Disc Disease” (THE UNIVERSITY OF ROCHESTER, priority 2008, published 2011).
Entries after “also recorded” stand apart in the source; their conditions may differ.

Key:
[1] = test system: Col2a1-CreER^T2;R26R mice; assay: TM-induced Cre-recombination in articular and growth plate chondrocytes, X-Gal staining; type: in vivo, mouse; conditions: for Cre-recombination efficiency in articular chondrocytes: n=3
Protocol: Col2a1-CreER^T2 transgenic mice were bred with Rosa26 reporter mice. Methods for mouse genotyping including primer sequences are the same as described previously (Chen et al., Genesis 45:44-50 (2007); Zhu et al., Osteoarthr. Cartilage 16:129-30 (2008)). Tamoxifen (TM, 1 mg/10 g body weight/day, i.p. injection, ×5 days) was administered to the 3- and 6-month-old mice, which were sacrificed 2 months after TM induction at the age of 5 and 8 months. Cre-recombination efficiency was evaluated by X-Gal staining. Nuclear Fast Red staining was performed as a counter stain. β-catenin^fx(Ex3)/fx(Ex3) mice were originally reported by Harada et al (Harada et al., Embo J. 18:5931-42 (1999)). The sequences of PCR primers for genotyping β-catenin^fx(Ex3)/fx(Ex3) mice are: upper primer, 5′-[…]-3′ (SEQ ID NO:10) and lower primer, 5′-[…]-3′ (SEQ ID NO:11). The 412-bp PCR product was detected in wild-type mice, and the 645-bp PCR product was detected in homozygous β-catenin^fx(Ex3)/fx(Ex3) mice. In heterozygous mice (β-catenin^fx(Ex3)/wt), both 412 and 645-bp PCR products were detected. The Col2a1-CreER^T2;β-catenin^fx(Ex3)/w transgenic mice and their Cre-negative littermates were used as controls and were administered TM as the experimental animals for phenotype analysis and cellular function studies.
In the present study, TM-induced Cre-recombination in fully developed growth-plate cartilage was investigated. Thus, creating the possibility of completely separating the role of a specific gene in articular chondrocytes from its potential effect on the growth plate cartilage, which may indirectly affect the function of articular cartilage. Col2a1-CreER^T2 transgenic mice were bred with Rosa26 reporter mice (Soriano, Nat. Genet. 21:70-71 (1999); Mao et al., Proc. Natl. Acad. Sci. USA 96:5037-42 (1999)). TM induction was performed in the 3- and 6-month-old Col2a1-CreER^T2;R26R mice. Mice were then sacrificed 2 months after TM induction at the age of 5 and 8 months and Cre-recombination efficiency was evaluated by X-Gal staining.

[2] = test system: IVD cells of Col2a1-CreER^T2;R26R transgenic mice; assay: TM-induced Cre-recombination in intervertebral disc (IVD) cells, X-Gal staining; type: in vivo, mouse; conditions: TM to 2-week-old mice, X-Gal staining at 1 month of age; listed as TM
Protocol: Since chondrocyte-specific β-catenin cAct mice (targeted by Col2a1-Cre transgenic mice) are embryonic lethal, to target intervertebral disc (IVD) cells (Col2a1-positive cell population) in postnatal and adult mice, the Col2a1-CreER^T2;R26R transgenic mice were used. Cre-recombination efficiency in IVD cells was determined in postnatal mice. TM (1 mg/10 g body weight, i.p., ×5 days) was administered into 2-week-old Col2a1-CreER^T2;R26R transgenic mice. Mice were sacrificed at 1 month of age and X-Gal staining was performed.

[3] = test system: 3.4 kb mouse Mmp-13 promoter; assay: Mmp-13 promoter activity; type: cell-based
Protocol: (§1) To determine the signaling mechanism through which β-catenin regulates Mmp-13 gene expression, in vitro studies using a RCS chondrogenic cell line were performed. […] A putative Runx2 binding site was identified within the 3.4 kb region of the Mmp-13 promoter.

[4] = test system: RCS chondrogenic cell line; assay: Wnt3a treatment of RCS cells, Mmp-13 mRNA expression; type: cell-based; conditions: 24 and 48 hours
Protocol: Total RNA extracted from primary articular chondrocytes, articular cartilage tissue, or primary disc cells was prepared using Trizol (Invitrogen; Carlsbad, Calif.) according to the manufacturer's protocol. One microgram total RNA was used to synthesize cDNA by iScripts cDNA Synthesis Kit (Bio-Rad; Hercules, Calif.).
as §1

[5] = test system: RCS chondrogenic cell line; assay: Wnt3a treatment, Runx2 protein expression (Western blot); type: cell-based; conditions: 0-48 hours
Protocol: as §1

Molecule	Cre-recombination efficiency in growth plate chondrocytes ([1]; TM administered in 3- and 6-month-old mice, 2 months after induction)	Cre-recombination efficiency in articular chondrocytes ([1]; TM administered in 3-month-old mice, X-Gal staining 2 months after induction (5-month-old)) [%]	Cre-recombination efficiency in articular chondrocytes ([1]; TM administered in 6-month-old mice, X-Gal staining 2 months later (8-month-old)) [%]	Cre-recombination efficiency in IVD cells [2]	Mmp-13 promoter activity, Runx2 binding site mutated ([3]; mutation of the Runx2 binding site in the promoter)	Mmp-13 promoter activity ([3]; wild-type 3.4 kb promoter)	Mmp-13 mRNA expression [4]	Runx2 protein expression [5]	Runx2 protein expression ([5]; listed as Wnt3a2)
CC/C(=C(\c1ccccc1)c1ccc(OCCN(C)C)cc1)c1ccccc1 [Tamoxifen]	less than 20%	84	76	high efficiency of Cre-recombination in annulus fibrosus cells and endplate cartilage cells but not in nucleus pulposus cells; also recorded: High Cre-recombination efficiency was observed in annulus fibrosus (AF) cells and endplate cartilage (EC) cells but not nucleus pulposus (NP) cells	–	–	–	–	–
Wnt3a: canonical Wnt ligand (protein, UniProt P56704 19-352, looked up) Protein Wnt-3a: SYPIWWSLAVGPQYSSLGSQPILCASIPGLVPKQLRFCRNYVEIMPSVAEGIKIGIQECQHQFRGRRWNCTTVHDSLAIFGPVLDKATRESAFVHAIASAGVAFAVTRSCAEGTAAICGCSSRHQGSPGKGWKWGGCSEDIEFGGMVSREFADARENRPDARSAMNRHNNEAGRQAIASHMHLKCKCHGLSGSCEVKTCWWSQPDFRAIGDFLKDKYDSASEMVVEKHRESRGWVETLRPRYTYFKVPTERDLVYYEASPNFCEPNPETGSFGTRDRTCNVSSHGIDGCDLLCCGRGHNARAERRREKCRCVFHWCCYVSCQECTRVYDVHTCK	–	–	–	–	completely blocked the stimulatory effect; also recorded: completely abolished	stimulated Mmp-13 promoter activity	significantly increased; also recorded: stimulated Mmp-13 expression	stimulated Runx2 protein expression in a time-dependent manner	significantly up regulated
